Assay results: patent publication US20070274969A1

Tests used:
[1] = molecular target: rat Bub1, endogenous (rat); assay: cell-based or functional assay
[2] = molecular target: human Bub1, endogenous (human) (UniProt O43683); assay: cell-based or functional assay
Chain of human Bub1, endogenous (human) (O43683 whole entry): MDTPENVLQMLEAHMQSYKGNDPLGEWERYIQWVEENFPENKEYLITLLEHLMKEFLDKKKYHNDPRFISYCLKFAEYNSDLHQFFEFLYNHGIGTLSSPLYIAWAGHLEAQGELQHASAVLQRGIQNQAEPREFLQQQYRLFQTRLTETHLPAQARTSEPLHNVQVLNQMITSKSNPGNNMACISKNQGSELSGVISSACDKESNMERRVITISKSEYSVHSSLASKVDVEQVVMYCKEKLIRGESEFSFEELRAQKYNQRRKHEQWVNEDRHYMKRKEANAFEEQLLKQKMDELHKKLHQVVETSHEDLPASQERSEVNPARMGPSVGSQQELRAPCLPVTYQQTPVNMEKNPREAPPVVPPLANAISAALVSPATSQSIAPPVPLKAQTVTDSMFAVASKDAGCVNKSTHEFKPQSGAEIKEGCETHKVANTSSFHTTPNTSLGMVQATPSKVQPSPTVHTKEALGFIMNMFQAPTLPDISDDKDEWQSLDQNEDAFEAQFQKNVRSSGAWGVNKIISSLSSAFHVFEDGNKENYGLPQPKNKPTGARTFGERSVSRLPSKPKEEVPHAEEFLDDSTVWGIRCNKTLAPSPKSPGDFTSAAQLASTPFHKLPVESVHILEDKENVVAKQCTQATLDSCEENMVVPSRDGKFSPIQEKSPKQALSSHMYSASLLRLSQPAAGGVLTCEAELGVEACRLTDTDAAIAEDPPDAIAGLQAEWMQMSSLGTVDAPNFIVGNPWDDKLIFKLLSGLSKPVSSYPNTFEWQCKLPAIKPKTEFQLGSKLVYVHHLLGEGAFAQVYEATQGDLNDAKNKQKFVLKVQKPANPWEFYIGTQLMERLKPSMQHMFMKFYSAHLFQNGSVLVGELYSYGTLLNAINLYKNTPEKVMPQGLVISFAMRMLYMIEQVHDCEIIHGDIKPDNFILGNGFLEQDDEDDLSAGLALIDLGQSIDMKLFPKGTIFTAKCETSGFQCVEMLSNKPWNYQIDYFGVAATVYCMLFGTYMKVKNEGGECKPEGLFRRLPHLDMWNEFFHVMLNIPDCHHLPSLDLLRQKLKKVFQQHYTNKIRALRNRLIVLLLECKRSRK

SV40 large T antigen, wild-type (from UniProt P03070 1-708)
cells that proceed to anaphase at 24 ng/ml nocodazole, time-lapse microscopy of immortalized rat embryo fibroblasts [1]: 90%
% > 4N cells (endoreduplication), 100 ng/ml nocodazole [2]: 45.7%
mitotic index (phospho-histone H3 positive cells), nocodazole for 15 hours [2]: 14.6%
